Test results as given in patent US5686572, “Domains of extracellular region of human platelet derived growth factor receptor polypeptides” (Cor Therapeutics, Inc., dated 1997).

Experiments:
[1] = target: T1, PDGF BB (Homo sapiens (Human), UniProt P01127); assay: solid-phase plate assay at 4° C., 125I-PDGF BB on the receptor fragment coated on polystyrene wells, Scatchard analysis
Description: (§1) This fraction was then applied to Sephacryl S-200 HR (Pharmacia) equilibrated in 0.15M ammonium bicarbonate pH 7.9. The fractions containing receptor (3–10 ng/μl) were detected by SDS-PAGE and Western blotting with a polyclonal rabbit antibody, made by standard methods, against a Domain 1 (D1) segment from the receptor external region. These fractions (3–10 ng/μl) were used to coat the microtiter wells as described above. The wells were then drained, rinsed once with 200 μl each of 0.5% gelatin (BioRad, EIA grade), 25 mM Hepes, 100 mM NaCl, pH 7.4, and incubated for 1–2 h at 24° C. with 150 μl of this same solution. The wells were drained and rinsed twice with 0.3% gelatin, 25 mM Hepes, 100 mM NaCl, pH 7.4 (150 μl each). […] The bound radioactivity remaining was solubilized from the wells in 200 μl 1% SDS, 0.5% BSA, and counted in a gamma-counter. The nonspecific binding was determined in the presence of a 150-fold excess of unlabeled PDGF BB (Amgen) and was about 7% of the total bound ^125I-PDGF.
(§2) Using iodinated PDGF-BB, the specific binding of less than 10 pg of ligand can be detected in an assay volume of […]. […] The nonspecific binding, determined in the presence of a […] of cold PDGF BB, was usually only about 5–10% of the total binding.

[2] = target: T1, PDGF BB; assay: solid-phase plate assay, displacement of bound 125I-PDGF BB by unlabeled PDGF BB
Description: as §1, §2

[3] = target: T1, PDGF BB; assay: competition: soluble receptor fragment against its immobilized form for binding 125I-PDGF BB
Description: as §1, §2

[4] = target: T1, PDGF BB; assay: solid-phase plate assay, 125I-PDGF BB bound after 4 h at 4° C., dissociation in buffer
Description: as §1, §2

B1: extracellular region fragment of the type B human PDGF receptor (soluble, PΔ1 construct, D1-D2-D3-D4-D5) (receptor)
chain: LVVTPPGPELVLNVSSTFVLTCSGSAPVVWERMSQEPPQEMAKAQDGTFSSVLTLTNLTGLDTGEYFCTHNDSRGLETDERKRLYIFVPDPTVGFLPNDAEELFIFLTEITEITIPCRVTDPQLVVTLHEKKGDVALPVPYDHQRGFSGIFEDRSYICKTTIGDREVDSDAYYVYRLQVSSINVSVNAVQTVVRQGENITLMCIVIGNDVVNFEWTYPRKESGRLVEPVTDFLLDMPYHIRSILHIPSAELEDSGTYTCNVTESVNDHQDEKAINITVVESGYVRLLGEVGTLQFAELHRSRTLQVVFEAYPPPTVLWFKDNRTLGDSSAGEIALSTRNVSETRYVSELTLVRVKVAEAGHYTMRAFHEDAEVQLSFQLQINVPVRVLELSESHPDSGEQTVRCRGRGMPQPNIIWSACRDLKRCPRELPPTLLGNSSEEESQLETNVTYWEEEQEFEVVSTLRLQH
In the case of B1, the Kd [1] is reported as ~1 nM, the “t1/2 of displacement by 150-fold excess of unlabeled PDGF BB” value [2] is reported as < 1 h and the IC50 [3] is reported as 5 nM. The “t1/2 of dissociation in binding buffer” value [4] was > 6 h.
